# In the domain aggregation screens of Martell et al. (2025):
# Test: soluble fraction after stress (log2 fold change); higher = more stays soluble; pooled small domains, quantitative proteomics
# Conditions: stress: pH 4
# In short: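 Small protein domains from pooled custom libraries were exposed to pH 4, then quantified with high-throughput quantitative proteomics. The fold change in how much of each domain remains soluble is read as aggregation propensity. It is given as log2, with higher values meaning more stayed soluble.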
row,Sequence,soluble fraction (log2)
1,HMVAGHLQEKNGQFYAVLSYKDTKGKRRTKWVPTGLMVRGNKKRAEAMLNDIRRKFVPPEQED,0.249
2,HMEDESSIERYLGSGAIKGIGPSLAARIVKKFGKDTFRIIEQEPERLAEIKGISERKAMEISTLMEEK,0.0126
3,HMSSGSLLTEREIEILAEMAKGLTNKAIGEKLFISVATVKTHILNIYRKLEVSSRVTAVNKAKQMRL,-0.11
4,HMYPTPAAANRHFLDKWGHQEAYLGKVLNSRSRASEILNGKRPLSLSDLRTLRDNLGIPVDLLL,-0.421
5,HMTNTDALINRAAKVVEEINPDKNTGRVSIDGDLWRAKSSSGELIEQNKQVIVISIESTIVTVKI,-0.317
6,HMGTIEEYSKYLINQYFDSLKKPMDAMTTSEKIEIVKSLDKKGIFNLKGSVGELAKRFNTSEKTIYRYLSS,0.00746
7,HMKTEIKSPLPGIVLKIFVRTGEYVDKNQRLFSLEAMKMENEIKAERAGVIAGIRISEGQSVLQDEVIMEM,-0.288
8,HMAAQLAHVPAVTGRPLAEAQRILADNRLNAQVTQQPVAEPKLDGVVIAQKITEGTRTMRGATVPLIVGKY,0.148
9,HMDPPISNDARNAINAKLMKFSELHPNEMKKLVEAYKKEFKVSKISPITLARQGEFLSHAISKIDDT,-0.0331
10,HMTTKEEAAYQAIRSAIIDGELKPGQSVTIRDLASRFDLGRTPITDAMKHLALDGWLETTTGVGTRV,-0.15
11,HMLRNDEAVMLGRRLLNKHLQAFSVQIKDISHQRIHDLLDELELESLDHLLDDIGLGNRSVFLVAQKLLQ,-1.25
12,HMIPESVQGIEEFLATGALKGIGKKTAAAIVHKFGKDTLRIMEEEPERLAEVSGIGEKKAAAIGEAFALH,-0.236
13,HMEEGKVKRMAMDMVDAFYDKVSAMVDDNNDLGRSVVDAWDDEEENPPEYMLDDETRAILVNAGKIEPE,0.0884
14,HMTGIKISVDRLQIGNYVKLPLNWKDHPFLFSSFAIKSQEEIDLIRRLGLKQVIMFPDKSSMPPKPV,-0.0359
15,HMTNIDIEKSIKNTITANYDDVLNYHNEDDNKTFASGDSRYSFDYDEKTKTLIVFTNSKVDAVFVDGIKKK,0.255
16,HMEELELTIDGEMVGRIDKQLGHHFDQFSRSQIQHWIEDGHVLVNGKQVKPKYKLLVGDHVQIIPEEPQK,0.223
17,HMAGTPAIVKWFNPTKGFGFVTPKEAGSDALLHASVLAKRGKRWLQEGTLVEVLIEEGPKGLVVSELLTIE,-0.659
18,HMSDGTVYGSDGVIKVNLPQSGMLRIYATDGTTLVNRWQAAGIDTISMPRGLYIVRFDNQVWKVVV,0.00982
19,HMAEKRTAIITTARADIRQKPEATAPLAFEAVKDVVLELTDKPADGWVRVKHRDGSTGYIRINQI,-0.132

row,Sequence,soluble fraction (log2)
1,HMGPVRDLGLLESAAHRPTTALWGRDVYATIEKKAAALLDSLVRDRPLADGNKRLGWLAALV,0.0116
2,HMRFEWFDTLTDREKEIFGLIATGFDNQQIADRLQLAEQTVRNNISTIYSKLEVKDRFEIIRLANTI,-1.29
3,HMTDDALIGKTAQVTVAIKPGSVGQITARVGDERVERLARASADAEIAAGSLVTIKSIAGDSVIVAPE,0.22
4,HMSQRINLNSASIEDMQSLDISNEKIDSIIDYRNRYGNIHNIYELLKIPGITIGDIHSIRNAVTVEIPH,-0.472
5,HMELSAQEIGRRLRIARENADIRQDDAAQVIGMSRPTLVSIEKGVRRVRIQEIQMLARHYGVSVNALLR,-0.2
6,HMSAETREELVGREGVSLTDLRPSGFALFGQEKIDVVSESEFIEEGTSVRIVSVEGSRHIVRAKR,-1.24
7,HMDKKTMFNEALAKLVSYATAHDNLITMEDVKSFFNGLIDDDSQYKLIYDYLSINKIEIKGFT,-0.704
8,HMKKHAPSLMRQIRRELKEGKSPESLLSKAKLISDSYYRSLSFYLLIPYLSPNSKQFQEAISLAGKDID,-0.216
9,HMDLGEQIIEKLRAAGGFLAITDKSPAEEIYELFATSKKNYKKAVGGLYKKGLLVIEDDGIRLTPAGR,≥ 0.43
10,HMGPIITKTYNLSYATARDVNDIIKSKKSARGDIVIDTRTNSLIVSDVQEKIDLIDEIVATL,-1.37
11,HMEANPLTDREKEVLELVADGKNTKEIAQELSIKSGTVRNYISMILEKLEVKNRIEAITRSKEKGWF,-0.025
12,HMRRSKVMLESILDEIPQMGQARRAALLEQFGSVAALRKASLAEIAMTPGIGEKIAVIIFEYLQKSSH,-0.067
13,HMKEEVEILGGKATIYTNDYGVWQFRLWLTTDNKYVRKSLRTKVKDYAITEGEKLYIQIRSDIEKGIKYY,-0.077
14,HMTPATVVIPKVAGQTVAEAKETLKNANFEIGEEKDESSDTVEEGRVIRTDPESGTNRKEGTKINLIVSS,0.0687
15,HMKHSLNHLGLWLLPELSRRDIQLREFAHLLGTTSQGLSDLLRGQRFSSHTLAQWQLRFQEKLDEIDQAS,-0.236
16,HMNDTPPELRAALDLLGLKWPLASVELRARYKDLAKQHHPDATGGDKQAEERLKDINRAYSLLKHRLAKQ,0.144
17,HMRTVEQFQIRKIYAISNALGISDSRADEDELHVLVSGLTGKDSIKELTYREASVVIERLEELQ,-0.62
18,HMKLLLSANISKLRKKYSMTQEQLAEALGVTFASVSKWERGVATPELKLIAEMADMFEVSIDALIGYEFRN,-1.41
19,HMLPQGKGTAMWLADHLAAASVTLDAGARKLLEDTLGEDMSRLPGVLRVLEATFGSDAGRLSAEDIEPFL,-1.05
